According to patent publication US20180305451A1 (COMPUGEN, published 2018):
Like-named read-outs stand apart in the source and are kept apart here.

Tests used:
[1] = target: T1, HIDE1_HH-1 (Human ECD + human IgG1 Fc mutated C220S at hinge), without SP (human); assay: BLI Octet RED384, bivalent Fab-A-FH
T1 construct: Batch #280 in the Serotec and phage display work; also called HIDE1 hECD-hIg; HIDE1 (H:H) recombinant Fc fusion protein

[2] = target: T2, human HIDE1-flag (human, UniProt A8MVS5 20-230); assay: FACS, HEK293 human HIDE1 Flag cells vs HEK293 empty vector, goat anti-human IgG F(ab')2-PE
T2 construct: Over-expressed on HEK293, SK-MEL-5, CHO-S and CHO-S OKT3 cells (pMSCV or pcDNA3.1); whole cell extracts in WB; Entry includes the signal peptide; also called hHIDE1 Flag
T2 sequence: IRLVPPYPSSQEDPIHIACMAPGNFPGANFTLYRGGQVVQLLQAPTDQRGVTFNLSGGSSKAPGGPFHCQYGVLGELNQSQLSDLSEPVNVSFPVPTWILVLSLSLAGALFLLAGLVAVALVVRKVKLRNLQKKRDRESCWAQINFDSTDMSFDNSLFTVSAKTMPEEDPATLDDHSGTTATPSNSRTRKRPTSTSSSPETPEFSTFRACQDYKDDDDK

[3] = target: T3, human HIDE1 (human, UniProt A8MVS5 20-230); assay: FACS, THP1 cells
T3 construct: Endogenous on U937, HL-60, THP-1 cells, blood monocytes, AML blasts and dendritic cells; also called C19orf38; hHIDE1
T3 sequence: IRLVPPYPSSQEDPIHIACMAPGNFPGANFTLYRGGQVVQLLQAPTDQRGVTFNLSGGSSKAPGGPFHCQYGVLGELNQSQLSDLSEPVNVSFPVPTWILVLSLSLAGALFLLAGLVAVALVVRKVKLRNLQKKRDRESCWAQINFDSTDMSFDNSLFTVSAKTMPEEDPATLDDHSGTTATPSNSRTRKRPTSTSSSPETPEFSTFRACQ

[4] = target: T3, human HIDE1; assay: FACS, U937 cells
[5] = target: T3, human HIDE1; assay: FACS, HL-60 cells
[6] = target: T3, human HIDE1; assay: FACS, U937 cells transfected with HIDE1 siRNA
[7] = target: T3, human HIDE1; assay: FACS, HL-60 cells transfected with HIDE1 siRNA
[8] = target: T3, human HIDE1; assay: FACS, U937 cells transfected with scrambled siRNA
[9] = target: T3, human HIDE1; assay: FACS, HL-60 cells transfected with scrambled siRNA
[10] = target: T3, human HIDE1; assay: FACS, CD14+ cells of human PBMCs, Alexa 647 conjugate
Method: The following antibodies were used. […] Brilliant violet 510 labeled anti-CD3 (Biolegend, cat. 344828), PE-labeled anti-CD14 (Biolegend, cat. 301806) and PercP-labeled anti-CD19 (Biolegend, cat. 302228).
PBMCs cells were thawed and stained with viability dye (BD Horizon; Cat#562247, BD biosciences), washed and pre-blocked with Fc blocking solution (cat#422302, Biolegend; 1:20) and/or human Ig Fc (Jackson; 200 μg/ml; cat#009-000-008) to avoid nonspecific binding via Fc receptors. Cells were then stained with anti-hHIDE1 mAbs or mIgG1 isotype control in the presence or absence of lymphocytes or monocytes surface marker. All samples were run on a MACSQuant analyzer (Miltenyi) and data was analyzed using Tree Star FlowJo software. Cells were first gated for lymphocytes or monocyte (FSC-A vs. SSC-A), and further gated for live cells before analyzed for HIDE1 expression by flow cytometry.

[11] = target: T3, human HIDE1; assay: FACS, THP1 cells transfected with HIDE1 siRNA, AF647 conjugate
Method: Confirmation of HIDE1 endogenous expression was also tested in THP1 cells transfected with HIDE1 siRNA as described in M&M section. Analysis of human HIDE1 membrane expression in the siRNA transfected cells was performed by FACS. As shown in FIG. 31 membrane expressions of human HIDE1 protein is reduced in cells transfected with HIDE1 siRNA (green) as compared to cells transfected with scrambled siRNA (orange).

[12] = target: T4, mouse HIDE1 Flag (mouse, UniProt Q75VT8 22-222); assay: Western blot of whole cell extracts, goat anti-mouse HRP
T4 construct: Over-expressed on HEK293 and EL4 cells (pMSCV); whole cell extracts in WB; also called mHIDE1 flag; not shown: Flag tag
T4 sequence: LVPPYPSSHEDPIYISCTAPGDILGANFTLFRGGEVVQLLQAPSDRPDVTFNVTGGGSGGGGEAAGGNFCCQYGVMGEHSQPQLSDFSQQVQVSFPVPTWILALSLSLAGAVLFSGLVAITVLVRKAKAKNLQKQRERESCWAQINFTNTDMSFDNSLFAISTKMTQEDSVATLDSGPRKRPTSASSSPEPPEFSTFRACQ

[13] = target: T1, HIDE1_HH-1 (Human ECD + human IgG1 Fc …); assay: SPR (ProteOn XPR 36): HIDE1-HH-1 captured on goat anti-human Fc GLC chip, Fab periplasmic extract injected 2 min, undiluted and 3-fold dilutions, 10 min dissociation
Method: A high density goat anti-human Fc antibody (Invitrogen) was immobilized by standard amine coupling over all lanes of a GLC chip using a ProteOn XPR 36 biosensor (Biorad). This surface was used to capture the recombinant HIDE1-H:H fusion protein (GenScript Lot 393383-21, batch #280) or a control Fc fusion protein (CD155, Sino Biologicals) in the vertical flow-cell direction at a concentration of ˜0.5 μg/mL for 90 seconds.
Each anti-HIDE1 Fab PPE sample was then injected at three concentrations (undiluted fab supernatant and two three-fold serial dilutions) in the horizontal direction over the captured fusion proteins. The dilutions were made using degassed PBS with 0.05% Tween 20 and 0.01% BSA. PPEs were injected for two minutes followed by 10 minutes of dissociation at a flow rate of 50 μL/min. The starting concentration range for each Fab is recorded in Table 39. The anti-human fc capture surfaces were regenerated with two 30-second pulses of 146 mM phosphoric acid after each cycle.

[14] = target: T4, mouse HIDE1 Flag; assay: Western blot of whole cell extracts, goat anti-mouse HRP; remark: listed apart in the source

T1 sequence (chain, as listed by the source C220S C220S limits assumed): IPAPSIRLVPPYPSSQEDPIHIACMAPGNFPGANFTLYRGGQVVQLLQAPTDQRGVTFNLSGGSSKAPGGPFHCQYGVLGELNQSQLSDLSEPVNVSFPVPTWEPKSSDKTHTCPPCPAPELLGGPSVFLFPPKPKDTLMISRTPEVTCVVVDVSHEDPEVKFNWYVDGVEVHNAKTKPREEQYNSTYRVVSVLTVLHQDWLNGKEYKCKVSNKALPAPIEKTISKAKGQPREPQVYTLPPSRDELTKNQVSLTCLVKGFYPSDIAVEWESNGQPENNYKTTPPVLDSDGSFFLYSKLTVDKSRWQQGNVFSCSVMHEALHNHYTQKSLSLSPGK

B1: αhHIDE1_AbD25754.1_Ser_Fab (Fab)
heavy: QVQLVQSGAEVKKPGASVKVSCKASGYTFSGYGMHWVRQAPGQGLEWMGIISPSNGNTNYAQKFQGRVTMTRDTSISTAYMELSRLRSEDTAVYYCAREVYYGLDVWGQGTLVTVSSASTKGPSVFPLAPSSKSTSGGTAALGCLVKDYFPEPVTVSWNSGALTSGVHTFPAVLQSSGLYSLSSVVTVPSSSLGTQTYICNVNHKPSNTKVDKKVEPKSEFKAEMPVLENRAAQGDITTPGGARRLTGDQTAALRDSLSDKPAKNIILLIGDGMGDSEITAARNYAEGAGGFFKGIDALPLTGQYTHYALNRKTGKPDYVTSSAASATAWSTGVKTYNGALGVDIHEKDHPTILEMAKAAGLATGNVSTAELQDATPAALVAHVTSRKCYGPSATSEKCPGNALEKGGKGSITEQLLNARADVTLGGGAKTFAETATAGEWQGKTLREQAQARGYQLVSDAASLNSVTEANQQKPLLGLFADGNMPVRWLGPKATYHGNIDKPAVTCTPNPQRNDSVPTLAQMTDKAIELLSKNEKGFFLQVEGASIDKQDHAANPCGQIGETVDLDEAVQRALEFAKKEGNTLVIVTADHAHASQIVAPDTKAPGLTQALNTKDGAVMVMSYGNSEEDSQEHTGSQLRIAAYGPHAANVVGLTDQTDLFYTMKAALGLKGAPDYKDDDDKGAPHHHHHH
light: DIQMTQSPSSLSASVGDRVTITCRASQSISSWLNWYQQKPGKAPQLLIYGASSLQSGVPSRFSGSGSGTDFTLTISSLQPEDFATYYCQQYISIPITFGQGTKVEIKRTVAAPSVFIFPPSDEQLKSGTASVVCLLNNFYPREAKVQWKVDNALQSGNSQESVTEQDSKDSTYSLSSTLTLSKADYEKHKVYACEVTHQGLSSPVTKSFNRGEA
modifications: Fab-A-FH format: the Fd chain carries bacterial alkaline phosphatase (which dimerises it, making the Fab bivalent), then FLAG and His6; all of these are in the letters.
notes: Serotec HuCAL Fab-A-FH; also called Ab332
- Kd [1]: 0.1 nM
- koff [1]: 6.09e-05 s⁻¹
- FACS analysis (GeoMean fold) human HIDE1/empty vector [2]: 145 fold

B2: αhHIDE1_AbD25753.1_Ser_Fab (Fab)
heavy: EVQLVQSGAEVKKPGESLKISCKGSGYSFTNYWIHWVRQMPGKGLEWMGIIDPGNSFTRYSPSFQGQVTISADKSISTAYLQWSSLKASDTAMYYCARGDGLYGGSDGYSMGGFDNWGQGTLVTVSSASTKGPSVFPLAPSSKSTSGGTAALGCLVKDYFPEPVTVSWNSGALTSGVHTFPAVLQSSGLYSLSSVVTVPSSSLGTQTYICNVNHKPSNTKVDKKVEPKSEFKAEMPVLENRAAQGDITTPGGARRLTGDQTAALRDSLSDKPAKNIILLIGDGMGDSEITAARNYAEGAGGFFKGIDALPLTGQYTHYALNRKTGKPDYVTSSAASATAWSTGVKTYNGALGVDIHEKDHPTILEMAKAAGLATGNVSTAELQDATPAALVAHVTSRKCYGPSATSEKCPGNALEKGGKGSITEQLLNARADVTLGGGAKTFAETATAGEWQGKTLREQAQARGYQLVSDAASLNSVTEANQQKPLLGLFADGNMPVRWLGPKATYHGNIDKPAVTCTPNPQRNDSVPTLAQMTDKAIELLSKNEKGFFLQVEGASIDKQDHAANPCGQIGETVDLDEAVQRALEFAKKEGNTLVIVTADHAHASQIVAPDTKAPGLTQALNTKDGAVMVMSYGNSEEDSQEHTGSQLRIAAYGPHAANVVGLTDQTDLFYTMKAALGLKGAPDYKDDDDKGAPHHHHHH
light: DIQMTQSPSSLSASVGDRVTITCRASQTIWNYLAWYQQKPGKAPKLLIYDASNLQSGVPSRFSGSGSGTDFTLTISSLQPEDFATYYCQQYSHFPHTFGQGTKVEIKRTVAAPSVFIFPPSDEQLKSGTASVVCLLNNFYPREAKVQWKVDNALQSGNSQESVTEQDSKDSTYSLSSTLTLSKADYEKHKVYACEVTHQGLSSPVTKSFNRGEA
notes: Serotec HuCAL Fab-A-FH
- Kd [1]: 0.07 nM
- koff [1]: 4.45e-05 s⁻¹
- FACS analysis (GeoMean fold) human HIDE1/empty vector [2]: 150 fold

B3: Mouse anti human HIDE1 mAb (Biotem #33B4-2F7) (antibody, mouse IgG1, kappa, V domains shown)
VH: QIQLVQSGPELKKPGETVKISCKASGYTFTNYGMNWVKQAPGKGLKWMGWINTYTGEPTYADDFKGRFAFSLETPASTAYLQINNLKNEDMATYFCVREHFYALDYWGQGTSVTVSS
VL: KIVLTQSPASLAVSLRQRATISCRASESVDSYGNSFMHWYQQKPGQPPKLLIYRASNLESGVPARFSGSGSRTDFTLTIDPVEADDAATYYCQQSNEDPRTFGGGTKLEIKR
notes: Mouse IgG1; also called Ab-364
- FACS (fold change from isotype) [3]: 3 fold
- FACS (fold change from isotype) [4]: 14 fold
- FACS (fold change from isotype) [5]: 4 fold
- fold change (anti HIDE1 vs. isotype control) [6]: 7 fold
- fold change (anti HIDE1 vs. isotype control) [7]: 3 fold
- fold change (anti HIDE1 vs. isotype control) [8]: 17.7 fold
- fold change (anti HIDE1 vs. isotype control) [9]: 5.2 fold
- staining, folds over isotype control [10]: ~3 fold
- fold change (anti HIDE1 vs. isotype control) [11]: 1.9 fold
- binding result [12]: no binding (tested: 2 µg/ml)

B4: B09 S404-01.C08 (Fab, V domains shown)
VH: QVQLVESGGGVVQPGRSLRLSCAASGFTFSSYAMHWVRQAPGKGLEWVAVISYDGSNKYYADSVKGRFTISRDNSKNTLYLQMNSLRAEDTAVYYCARSSGSSWSNIAYWGQGTLVTVSS
VL: QSVLTQPPSVSGAPGQRVTISCIGSSSNIGAGYDVHWYRQLPGTAPKLLIYDNTNRPSGVPDRFSASKSGISASLAITGLQAEDEADYYCQSYDSNLSGVFGGGTQLTVL
notes: Fab form of CPA.12.012 (IgG4 form is m55); complex kinetics; copies: 1 + 1
- binding result [13]: binds

B5: Mouse anti human HIDE1 mAb (Biotem #39A7-3A10-3G8) (antibody, mouse IgG1, kappa, V domains shown)
VH: QVQLQQSGAELVRPGASVKLSCKALGYTFTDYEMHWVKQTPVHGLEWIGDIYPGSGGTAYNQKFKGKATLTADKSSSTAYMELSSLTSEDSAVYYCTRKGRSFAYWGQGTLVTVSA
VL: NIVMTQSPKSMSMSVGERVTLSCKASENVDTYVSWYQQKPEQSPKLLIYGASNRYTGVPDRFTGSGSATDFTLIISSVQAEDLADYHCGQSYRYPLTFGAGTKLELKR
notes: Mouse IgG1; also called 39A7-39A10-3G8
- binding result [14]: no binding (tested: 2 µg/ml)
